Experimental data: paper doi:10.1101/2024.06.06.597810 (2024)
Where a chain is given by its changes, count along the chain named. Names and notes keep the numbering of the source. Where no end group is shown, it is not given here.

B1: S2P6 UCA VH Y32Q/M48I double mutant Fab (Fab, V domains shown)
VH: QVQLVQSGAEVKKPGASVKVSCKASGYTFTSQYMHWVRQAPGQGLEWIGIINPSGGSTSYAQKFQGRVTMTRDTSTSTVYMELSSLRSEDTAVYYCARGSPKGAFDYWGQGTLVTVSS
VL: not shown
B2: S2P6 UCA VH Y32Q Fab (Fab, V domains shown)
VH: B1 VH with I48M
VL: not shown
B3: S2P6 UCA VH M48I/S56H double mutant Fab (Fab, V domains shown)
VH: B1 VH with Q32Y, S57H
VL: not shown
B4: S2P6 UCA VH Y32Q/M48I/S56H triple mutant Fab (Fab, V domains shown)
VH: B1 VH with S57H
VL: not shown
B5: S2P6 UCA VH S56H Fab (Fab, V domains shown)
VH: B1 VH with Q32Y, I48M, S57H
VL: not shown
B6: S2P6 UCA VH M48I Fab (Fab, V domains shown)
VH: B1 VH with Q32Y
VL: not shown

Target: T1, Biotin-labeled MHV stem helix peptide (MHV, also: biotin label, position not given here)
T1 chain: PDFKEELDKWFKNQ
Experiment: BLI

Binder | Kd [nM]
B1 | 1190
B2 | 2260
B3 | 1300
B4 | 2230
B5 | 3760
B6 | 731
